# In a protein production outcome set (Wang et al. 2014):
# Assay: label from the status in PepcDB records
row,Sequence,protein production
1,MQAMTERLEAMLAQGTDNMLLRFTLGKTYAEHEQFDAALPHLRAALDFDPTYSVAWKWLGKTLQGQGDRAGARQAWESGLAAAQSRGDQQVVKELQVFLRRLAREDAQHGG,failed
2,MAICKVFRNYCKENDIQLHQANFSLSYDTNIPRQTGLSGSSAIVSAALNCLLDFYNVRHLIKVQVRPNIVLSAEKELGIVAGLQDRVAQVYGGLVHMDFSKEHMDKLGHGIYTPMDISLLPPLHLIYAENPSDSGKVHSMVRQRWLDGDEFIISSMKEVGSLAEEGRTALLNKDHSKLVELMNLNFDIRRRMFGDECLGAMNIEMVEVARRVGAASKFTGSGGAVVVFCPEGPSQVKLLEEECRKAGFTLQPVKIAPSCLNDSDIQTL,failed
3,MPFINIKLVPENGGPTNEQKQQLIEGVSDLMVKVLNKNKASIVVIIDEVDSNNYGLGGESVHHLRQKN,failed
4,MVKNGQSKRQPWVKNLYSNREYPDNYTDASFLKDLRTNLHCRIYTFGEAIAGITVLNNQISCITGFLILYQLMLSDSVSPTTILVPSCGITGIGYLCYRGRSLSWALLGEDSKTLVTVVLFGYLFSPMLHTLTQAISTDTIYTMTFFVLLGNLIFGHYGLDVAMVSKVGNIYGYWSQAVSLNAAIFGAICLASRLPTSYHAFVLLVEAAVFFVLYPIMTEANWHAGFMLPIFAICCMALYCISRPVLYLYASTTIFINFVCPFIFVWQQQYKFNIHGPWDEAIVEENTEENLDGNL,failed
5,MLNSRRIVVVLPAYNAEKTLEMTYAEIPFEHVDHVLLVDDASRDRTAQVAERLGIKTIVHDRNKGYGANQKTCYRAALDLGADIVIMVHPDYQYTPKLITAMAAMIAYGEFDAVLGSRILGIGALKGGMPLYKYVANRVLTLVENLLLSHKLSEYHTGYRAFSRQVLEQLPLDANGDDFVFDNQMLAQIIWHGYRIGELSCPTKYFEDASSINFRRSVIYGLGVLGTALEFRLARMGLIRSGRFTPRNDQAAAQLEHHHHHH,not failed
6,MEASRNRSLVGNNRSPEMNENDGEDVAASAAVEDVEVWDTLSNGFKRAQLYLDQNRDLIQRVNENHMSRIPDNVSRNVGLINEINGNISQVMEIYSDLSLNFAKKFDQRRRTTKDGDTTTTTTGS,failed
7,MNKDFTFTIKSSCFDENYNPSENTRITTNFANLARGKSRQENLRNTLVMMDNRFNTLAYWDNPKANRYSVELEIISVEIDIEGNGDTFPAIEILKTNIVDKKTNERIEGIVGNNFSSYVRDYDFSVLLPEHNKSHPGFSTPDNFGDLHGKLFKCFTNSKFYKDNFNKQPVICLSVSSKNTYHRTGNQHPVLGIEYQQNEPSLTDHYFERMGLQARYFMPANSVAPLAFYFSGDLLNDYTNLELISTISTMETFQKIYRPEIYNANSAAGQYYQPNLNNQDHSLTKIVYDRVERSQLAIEQGKFTEEHFIKPYKNILEQWSAHYAR,not failed
8,MGTALVYHEDMTATRLLWDDPECEIECPERLTAALDGLRQRGLEERCLCLSACEASEEELGLVHSPEYIALVQKTQTLDKEELHALSKQYDAVYFHPDTFHCARLAAGAALQLVDAVLTGAVHNGLALVRPPGHHSQRAAANGFCVFNNVALAAKHAKQKYGLQRILIVDWDVHHGQGIQYIFNDDPSVLYFSWHRYEHGSFWPFLPESDADAVGQGQGQGFTVNLPWNQVGMGNADYLAAFLHVLLPLAFEFDPELVLVSAGFDSAIGDPEGQMQATPECFAHLTQLLQVLAGGRICAVLEGGYHLESLAQSVCMMVQTLLGDPTPPLLGLMVPCQSALESIQSVQTAQTPYWTSLQQNVAPVLSSSTHSPEERSLRLLGESPTCAVAEDSLSPLLDQLCLRPAPPICTAVASTVPGAALCLPPGVLHQEGSVLREETEAWARLHKSRFQDEDLATLGKILCLLDGIMDGQIRNAIATTTALATAATLDVLIQRCLARRAQRVLCVALGQLDRPLDLADDGRILWLNIRGKDAAIQSMFHFSTPLPQTTGGFLSLILGLVLPLAYGFQPDMVLMALGPAHGLQNAQAALLAAMLRSPVGGRILAVVEEESIRLLARSLAQALHGETPPSLGPFSKATPEEIQALMFLKARLEARWKLLQVAAPPP,failed
9,MRQTFIARKISFISLIHFRDEYMSPQNNHLQRPPAAVLYADELAKLKQNDNAPCPPGWQLSLPAARAFILGDEAQNISRKVVISPSAVERMLVTLATGRGLMLVGEPGTAKSLLSELLATAISGDAGLTIQGGASTTEDQIKYGWNYALLINHGPSTEALVPAPLYQGMRDGKIVRFEEITRTPLEVQDCLLGMLSDRVMTGPELTGEASQLYAREGFNIIATANTRDRGVNEMSAALKRRFDFETVFPIMDFAQELELVASASARLLAHSGIPHKVPDAVLELLVRTFRDLRANGEKKTSMDTLTAIMSTAEAVNVAHAVGVRAWFLANRAGEPADLVECIAGTIVKDNEEDRARLRRYFEQRVATHKEAHWQAYYQARHRLP,failed
10,MTQSQTNDGAGAGAVTTVESVPPQPQSQPQPQPQQQSNEMVLHTGSLSFSSHMSREDEEMTRSALSAFRAKEDEIEKRRMEVRERIQAQLGRVEQETKRLSTIREELESMADPRIWPSELESMADPMRKEVSVVRKKIDSVNKELKPLGSTVQKKAEQNSIFGNEMKQEREYKEALDTFNEKNREKVQLITKLMEMEQLVGESEKLRMIKLEELSKSIETV,not failed
11,MAYTIGVDFGTLSGRAVLVHVQTGEELAAAVKEYRHAVIDTVLPKTGQKLPRDWALQHPADYLEVLETTIPSLLEQTGVDPKDIIGIGIDFTACTILPIDSSGQPLCMLPEYEEEPHSYVKLWKHHAAQKHADRLNQIAEEEGEAFLQRYGGKISSEWMIPKVMQIAEEAPHIYEAADRIIEAADWIVYQLCGSLKRSNCTAGYKAMWSEKAGYPSDDFFEKLNPSMKTITKDKLSGSIHSVGEKAGSLTEKMAKLTGLLPGTAVAVANVDAHVSVPAVGITEPGKMLMIMGTSTCHVLLGEEVHIVPGMCGVVDNGILPGYAGYEAGQSCVGDHFDWFVKTCVPPAYQEEAKEKNIGVHELLSEKANHQAPGESGLLALDWWNGNRSTLVDADLTGMLLGMTLLTKPEEIYRALVEATAYGTRMIIETFKESGVPIEELFAAGGIAEKNPFVMQIYADVTNMDIKISGSPQAPALGSAIFGALAAGKEKGGYDDIKKAAANMGKLKDITYTPNAENAAVYEKLYAEYKELVHYFGKENHVMKRLKTIKNLQFSSAAKK,not failed
12,MVRTRLFGTFPHLSRSAQAQRNMTTTYANADPGELEKFSELAHRWWDPNSEFKPLHEINPLRLDWIQSTAPLAGKRVVDVGCGGGILSESMARAGANVKGIDLSRKALRVADLHSLEAGVAVDYEEIAAEALAAREPGSFDVVTCMEMLEHVPDPASVVRACATLVKPGGHVFFSTIHRNAKAYLLAVIGAEYVLNMLPRGTHDYAKFIRPSELAGFARTAGLEPAQLRGLEYNPLTGRYALTHDTSVNYLIATRRPDAP,failed
13,SEDTMDRINKDHDHTTSVASRFILADVITSTAFSNASGDINTYASSYIEYEVGVDNQLYYAEVRENEPSSSSTFNNSWNGIYSSLKNARIIIDQCGEGGRDHGNDVTRGMAEVMAAYNCALIADFFGDAPCSQAALVDEKGSPVYMTPKMDTQQEIYTQIISYLDDAIANLQKEDLADVTEQDFLYAGDADKWLKFAYGLKARYTMRLINRSSNKSADYEKVLDYVSKSFTSADDQAAFDIYDSNNINPFYGFYNSRAGFGASTSLGTKLLAYNDPRANRAFFTPIVDKKRSQVAANDPSLVPAPNGSPDQSTSKYGISAFVYAKTAPTLLMSYHELMFLKAEALCRLNRDAEDALKEAVVAGLLNAENSISIAIKELGSGLNTNSSEVITETSAGKYFDDVVKAKYAANPLQETMIQKYLAMWGASGEATETYNDFRRMKGLNENFITLTNPNNSSKFPLRYPYGNSDTAANPEVKAAYGNGDYVYSEPVWWAGGSR,not failed
14,MSQDVSAQLQFRRSTMHWLRVARTAALALLLAPAVAPARAWLPPPGHVQMPLWPTVVPDALPHPRPESVGTGEGKRPWTKVGDVSRPTITFYAPKGQNTGAAAVVFPGGGYQVLAMDLEGTDICDWLSGRGITCVLLKYRVPNSGPTWTNGGRYYPKVQTALQDAQRALGLVRQHADDWGVDPHRVGVIGFSAGGHLVAAMSTHFTRRTYPSVDAADAQSCRPDFAIAVYPGHLWAHEDEDRAKRDPTHLPLRPDITVTADTPPTFLLQAEDDEVDGVSQSLAYYVALKQAGVPAEMHLYAEGGHAFGLRAGKLPIAQWPHLVETWLGTIGMLGTASAP,failed
15,VIKKEGPGWRIIFDSSRDNFSTLIGGETWAIELDKSEWKILVEVVMELCDQYKLVKEQLMGDEDITLELERRPWLAILNGDQYGWNLRLILSASGLFNRGAEVYWPRHVTNNVVNAMRSMWDSDYL,not failed
16,MRIKLIIVEGKTDESFFKVLLEKLYGFREAKKLTPEFPIGKWGFRIGEHPLVLEKDNIALVIIHAEGKQRIPKVLKSVLDSVKLGLLNVEEVYVVRDVDEGNDVFEWVLSFLREREVRVDNGAIVTEGVKIYPYGMGNLTLNEPFVKEKKELELSLAYLAKLDGILEKYRGSMRALSQDKGDKLTPKDVMHILSIANDYTGDCLSGLYEKYIGIMIHRNRELLIRFLSEVNLLPLLERMVG,not failed
17,MNQLIFDFAAHDYPSFDKFLGTENAELVYVLRHKHGQFIYVWGEEGAGKSHLLQAWVAQALEAGKNAAYIDAASMPLTDAAFEAEYLAVDQVEKLGNEEQALLFSIFNRFRNSGKGFLLLGSEYTPQQLVIREDLRTRMAYCLVYEVKP,failed
18,MGKQESEKTVTGSDGSGRYERKALIDKLYETQELSREEWIRLIEGRTPELSEYLFEKARAVREREYGKAVYIRGLIECSNYCRNNCYYCGIRRGNQNAQRYRLTADEILSCCENGYSLGFRTFVLQGGEDPAMTDGWVADVIRRIKKEFPDCAVTLSLGEKSEAAYQCLFDAGADRYLLRHETADADHYGKLHPDGLSLAHRMECLRTLKRIGFQTGCGFMVGSPGQTPECLAKDMAFIRELNPQMVGIGPFIPQHDTPFRDERAGAFEETLWLLGLIRLMLPRVLLPATTALGTIHPKGRELGMLAGANVVMPNLSPLGVRKKYLLYDNKICTGDEAAESLNSLKESMKAIGYEVAVGRGDYRL,failed
19,MALFSVFSVAQTTTYHTKNKKSISAYQEAELLQQQRRWNEAINVLDAVIQKDTGFVEAYYKVGSMYMAMGNKTAAARYFCKGADLDPSVKAFAGAYFTAGELSYNEGEYVRAKRYFGYALNVQSGDKKIKEQTPVYIAKCDFAIDMMKHPVDFKPVLMTPPINTAFAQSHPVLTADGKTLYYTTLSGLSRQDDENIVTSSYVNGKWSEPVSISDNINSKENEGTCSISMDGNSLVFVGCGKADGLGSCDIYISKKVNNVWSKPTNLGPAVNSTSWDSHPSLSADGRTLYFVSARKGGFGKEDIYVTHLDEKGIWSPAQNAGSSVNTSGTEFSPFIHADGTTLYFSSNGLLGMGGLDIFYTTGNDTTWAVPKNIGYPLNTYANDETLFITVDGAKGYYSRFDGTNVNYNSRIFLYEFDVPQSLKPGRISTFAKGHIYDKQTKKPLGARVELVDIETNTVTQAVQSDSITGEYTIVITEGKEYAVYVNRNKYLFESLNVNYKNPTSFDALTLDIYLTPIISGSHVTLNNIFFQTNSYQLEEKSISELKKLINFIQINPAQRVELAGYTDNVGTAEANLKLSAMRAKAVYDYLIQHGIKPAGITYKGYGAASPVADNNSEEGRQKNRRLEIKIL,failed
20,MQKKSIYVAYTGGTIGMQRSDNGYIPVSGHLQRQLALMPEFHRPEMPDFTIHEYAPLIDSSDMTPEDWQHIANDIQQNYDLYDGFVILHGTDTMAFTASALSFMLENLAKPVIITGSQIPLAELRSDGQTNLLNALYLAANHPVNEVSLFFNNQLFRGNRTTKAHADGFDAFASPNLSVLLEAGIHIRRQSSVVSPTSNGPLIVHRITPQPIGVVTIYPGISGAVVRNFLLQPVKALILRSYGVGNAPQKAELLDELKNASDRGIVVVNLTQCISGSVNMGGYATGNALAQAGVISGFDMTVEAALTKLHYLLSQSLSPNEIRQLMQQNLRGELTDTQ,not failed
